The values that follow come from patent US20220112284A1 (Innovent, published 2022).

Experiment [1] concerns the target T1, human LAG-3-his (human, UniProt P18627 23-450).
T1 construct: Bought reagent; also called LAG-3 protein; not shown: His tag
T1 sequence (looked up): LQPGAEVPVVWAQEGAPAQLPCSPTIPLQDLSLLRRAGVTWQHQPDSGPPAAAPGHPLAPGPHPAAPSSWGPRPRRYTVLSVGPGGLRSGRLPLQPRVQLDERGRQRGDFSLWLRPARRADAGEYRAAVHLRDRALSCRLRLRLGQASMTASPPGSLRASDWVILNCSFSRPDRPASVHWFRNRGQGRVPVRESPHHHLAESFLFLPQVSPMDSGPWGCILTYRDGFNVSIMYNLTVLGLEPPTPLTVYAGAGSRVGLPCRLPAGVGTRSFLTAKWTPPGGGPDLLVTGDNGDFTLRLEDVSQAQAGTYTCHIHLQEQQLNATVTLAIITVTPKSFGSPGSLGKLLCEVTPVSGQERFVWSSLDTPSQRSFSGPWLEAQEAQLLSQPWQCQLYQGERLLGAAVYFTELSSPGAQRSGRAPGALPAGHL
Nature of the experiment: ForteBio Octet BLI; antibody on AHQ tip, human LAG-3-His 100 nM in solution. The method, then:
(§1) The equilibrium dissociation constant (KD) for the binding of the prepared exemplary anti-LAG-3/PD-L1 bispecific antibody IGN-LP disclosed herein to LAG-3 and PD-L1 was determined by a kinetic binding assay using the Octet system manufactured by ForteBio. A ForteBio affinity assay was performed according to the method reported in the literature (Estep, P, et al., High throughput solution Based measurement of antibody-antigen affinity and epitope binning MAbs, 2013, 5(2): p. 270-278). Briefly:
(§2) The anti-human IgG Fc biosensor AHQ was immersed in each well containing the antibody solution at room temperature for 600 s to load the samples. The sensor was then washed in SD buffer until it returned to the baseline, and then immersed in a well containing 100 μL of the antigen solution to monitor the binding of the antibody to the antigen. The sensor was then transferred to a well containing 100 uL of the SD buffer to monitor the antibody dissociation (the operation procedures were set as: Baseline, Loading ˜1 nm, Baseline, Association and Dissociation, each running for a time depending on the binding and dissociation rates of the samples). The rotation speed was 400 rpm and the temperature was 30° C. […]

In experiment [2] the target is T2, human LAG-3 on 293 cells overexpressing human LAG-3 (293-LAG-3) (human, UniProt P18627 23-525).
T2 construct: whole, on cells; also called LAG-3 on the cell surface
T2 sequence (looked up): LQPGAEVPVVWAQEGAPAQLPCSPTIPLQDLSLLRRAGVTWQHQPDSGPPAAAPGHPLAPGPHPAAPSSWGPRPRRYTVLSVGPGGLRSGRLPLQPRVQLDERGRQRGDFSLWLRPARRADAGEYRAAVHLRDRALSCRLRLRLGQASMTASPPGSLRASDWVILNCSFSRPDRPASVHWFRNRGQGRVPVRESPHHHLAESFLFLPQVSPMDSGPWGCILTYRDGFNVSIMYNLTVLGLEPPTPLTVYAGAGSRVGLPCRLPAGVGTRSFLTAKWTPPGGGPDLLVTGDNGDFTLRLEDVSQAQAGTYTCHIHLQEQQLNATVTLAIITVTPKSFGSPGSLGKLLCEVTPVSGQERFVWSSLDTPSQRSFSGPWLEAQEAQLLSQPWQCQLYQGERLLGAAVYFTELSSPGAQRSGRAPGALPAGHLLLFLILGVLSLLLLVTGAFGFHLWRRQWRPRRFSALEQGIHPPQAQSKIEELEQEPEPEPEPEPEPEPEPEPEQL
Description: FACS on 293-LAG-3 cells, PE anti-human Fc detection. The method, then: (§3) 2) Detection: The cell suspension was centrifuged at 400 g on a centrifuge for 5 min to remove the cell culture medium. The serial dilutions of the bispecific antibody IGN-LP disclosed herein and anti-humanized Nb-Fc and anti-LAG-3 antibody ADI31853 as controls were added to the U-shaped plate at 100 μL each, and then the cells were resuspended and put onto the ice to stand for 30 min. The cell suspension was centrifuged at 400 g for 5 min to remove the supernatant, and the cells were washed with PBS to remove the unbound antibodies. The resulting cell suspension was centrifuged at 400 g for 5 min to remove PBS. 100 μL of the solution of PE-conjugated anti-human Fc antibody (Jackson Immuno Research) diluted at a ratio of 1:200 was added to each well, and the cells were incubated in the dark on the ice for 30 min. Then the cell suspension was centrifuged at 400 g for 5 min to remove the supernatant. The cells were washed with PBS once to remove the unbound PE-conjugated anti-human Fc antibody. Then the cells were resuspended with 100 μL of PBS, and the binding of the antibody to cells was assayed by FACS.

The target in experiment [3] is T1, human LAG-3-his. Nature of the experiment: ForteBio Octet BLI; antibody on AHQ tip, human LAG-3-His 100 nM in solution, monovalent. The method, then: as §1, §2
The target in experiment [4] is T3, human PD-L1-his (human, UniProt Q9NZQ7 19-238).
T3 construct: Bought reagent; also called PD-L1 protein; not shown: His tag
T3 sequence (Q9NZQ7 19-238 limits assumed): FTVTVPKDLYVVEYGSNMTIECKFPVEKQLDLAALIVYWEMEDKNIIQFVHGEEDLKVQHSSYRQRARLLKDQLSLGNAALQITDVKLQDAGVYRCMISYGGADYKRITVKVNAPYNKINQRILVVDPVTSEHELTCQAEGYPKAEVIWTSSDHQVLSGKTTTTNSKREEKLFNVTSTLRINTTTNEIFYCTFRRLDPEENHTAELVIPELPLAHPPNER
Description: ForteBio Octet BLI; antibody on AHQ tip, human PD-L1-His 100 nM in solution. On the procedure:
as §1, §2
A general note: Biolayer interferometry detects binding as a change in optical thickness at a sensor tip.

For experiment [5], the target named is T4, human PD-L1 on CHOS cells overexpressing PD-L1 (CHOS-PD-L1) (human, UniProt Q9NZQ7 19-290).
T4 construct: whole, on cells; also called CHO-PD-L1; PD-L1 on the cell surface
T4 sequence (Q9NZQ7 19-290): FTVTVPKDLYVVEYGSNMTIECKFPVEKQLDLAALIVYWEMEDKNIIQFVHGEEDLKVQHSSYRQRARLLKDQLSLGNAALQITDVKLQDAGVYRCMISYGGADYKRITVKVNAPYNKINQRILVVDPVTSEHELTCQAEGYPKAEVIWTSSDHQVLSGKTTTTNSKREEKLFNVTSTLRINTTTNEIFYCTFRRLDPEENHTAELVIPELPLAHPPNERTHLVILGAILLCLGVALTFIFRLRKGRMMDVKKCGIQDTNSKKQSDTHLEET
Description: FACS on CHOS-PD-L1 cells, PE anti-human Fc detection. The method, then: as §3

Experiment [6] deals with T3, human PD-L1-his. Description: ForteBio Octet BLI; antibody on AHQ tip, human PD-L1-His 100 nM in solution, monovalent. The method, then: as §1, §2

For orientation: koff means the rate constant with which the complex falls apart. Higher therefore signals fast dissociation. The term kon denotes the second-order rate constant of association. What is called EC50 is the concentration needed to bring the measured effect to its halfway point. A low value points to higher potency in that assay. The Kd is the equilibrium constant for the complex coming apart.

B1: anti-LAG-3 antibody ADI-31853 (antibody, human IgG1, kappa, L234A L235A, V domains shown)
VH: QLQLQESGPGLVKPSETLSLTCTVSGGSIYSESYYWGWIRQPPGKGLEWIGSIVYSGYTYYNPSLKSRVTISVDTSKNQFSLKLSSVTAADTAVYYCARVRTWDAAFDIWGQGTMVTVSS
VL: DIQMTQSPSSLSASVGDRVTITCQASQDISNYLNWYQQKPGKAPKLLIYDASNLETGVPSRFSGSGSGTDFTFTISSLQPEDIATYYCQQVLELPPWTFGGGTKVEIKR
notes: also called parental anti-LAG-3 antibody
In the case of B1, in experiment [1], the koff turned out to be 0.0002 s⁻¹ and the kon was found to be 128000 M⁻¹ s⁻¹. In experiment [2], this molecule had an EC50 of 0.504 nM. The molecule also gave a Kd in experiment [3] of 1.56 nM.

B2: anti-PD-L1 humanized Nb-Fc antibody (Fc fusion)
chain: QVQLQESGGGLVQPGGSLRLSCAASAYTISRNSMGWFRQAPGKGLEGVAAIESDGSTSYSDSVKGRFTISLDNSKNTLYLEMNSLRAEDTAVYYCAAPKVGLGPRTALGHLAFMTLPALNYWGQGTLVTVSS
notes: The VHH is inferred from the words 'parent antibody' / 'parental anti-PD-L1 antibody'; also called anti-humanized Nb-Fc; parental anti-PD-L1 antibody; not shown: the antibody was obtained according to ZL201710657665.3
In experiment [4], B2 registered a koff of 0.00356 s⁻¹ and a kon of 310000 M⁻¹ s⁻¹. This molecule yielded an EC50 in experiment [5] of 1.2 nM. In experiment [6], this molecule came in with a Kd of 11.5 nM.
